From article PMC10577314 (Frontiers in Cell and Developmental Biology, 2023)

Target: T1, C-terminal half of Sec8 (Sec8c, aa544–975) (rat, UniProt Q62824 544-975)
T1 construct: Sec8 (exocyst subunit), Rattus norvegicus, C-terminal half, aa544–975; ends with the ITTV motif; Used in ITC and SEC under the plain name Sec8c; source: E. coli BL21-DE3, purified (Ni-HiTrap HP; Superdex 200)
Experiment: ITC; 300 µM SAP102 truncation in the syringe titrated into 30 µM Sec8c (or Sec8c-Δ958–971) in the cell; 20 mM HEPES pH 7.5, 100 mM NaCl, 1 mM DTT; one-set-of-sites model; control titration (protein to buffer) subtracted
Conditions: both partners purified

T1 sequence (Q62824 544-975): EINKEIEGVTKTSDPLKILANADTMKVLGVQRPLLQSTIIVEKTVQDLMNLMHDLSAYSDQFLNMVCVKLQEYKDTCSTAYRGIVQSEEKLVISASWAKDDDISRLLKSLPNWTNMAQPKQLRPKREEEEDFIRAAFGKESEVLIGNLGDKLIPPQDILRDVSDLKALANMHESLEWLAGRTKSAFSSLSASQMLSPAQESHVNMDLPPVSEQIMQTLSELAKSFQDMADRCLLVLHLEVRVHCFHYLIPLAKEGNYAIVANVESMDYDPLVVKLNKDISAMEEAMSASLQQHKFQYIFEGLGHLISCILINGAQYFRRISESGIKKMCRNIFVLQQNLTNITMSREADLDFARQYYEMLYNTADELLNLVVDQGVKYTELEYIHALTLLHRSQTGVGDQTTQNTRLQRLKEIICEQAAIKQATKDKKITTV

Binder	Kd
SAP102 PDZ1-PDZ2 (aa144–331) (domain or fragment, rat, UniProt Q62936 144-331, looked up, also called tandem PDZ1-PDZ2; source: E. coli BL21-DE3, purified (Ni-HiTrap HP, SENP2 cleavage, Superdex 200); not shown: His6-SUMO, N-terminal, cleaved) MFKYEEIVLERGNSGLGFSIAGGIDNPHVPDDPGIFITKIIPGGAAAMDGRLGVNDCVLRVNEVDVSEVVHSRAVEALKEAGPVVRLVVRRRQPPPETIMEVNLLKGPKGLGFSIAGGIGNQHIPGDNSIYITKIIEGGAAQKDGRLQIGDRLLAVNNTNLQDVRHEEAVASLKNTSDMVYLKVAKPG	~6 µM
SAP102 PDZ2 (aa241–331) (domain or fragment, rat, UniProt Q62936 241-331, looked up, source: E. coli BL21-DE3, purified (Ni-HiTrap HP, SENP2 cleavage, Superdex 200); not shown: His6-SUMO, N-terminal, cleaved) TIMEVNLLKGPKGLGFSIAGGIGNQHIPGDNSIYITKIIEGGAAQKDGRLQIGDRLLAVNNTNLQDVRHEEAVASLKNTSDMVYLKVAKPG	~4 µM
